Test results reported in the supplement of paper PMC11246515.
± gives the standard deviation of the averaged measurements.

Experiment: total protein half-life in vivo (active degradation + dilution); higher = more stable protein
[1] = E. coli NCM3722 delta-clpP delta-lon delta-hslV, growth: N-lim chemostat, doubling time 6 h
[2] = E. coli NCM3722 delta-clpP, growth: N-lim chemostat, doubling time 6 h
[3] = E. coli NCM3722 delta-hslV, growth: N-lim chemostat, doubling time 6 h
[4] = E. coli NCM3722 delta-lon, growth: N-lim chemostat, doubling time 6 h
[5] = E. coli NCM3722 delta-smpB, growth: N-lim chemostat, doubling time 6 h
[6] = wild type E. coli NCM3722, growth: C-lim chemostat, doubling time 3 h
[7] = wild type E. coli NCM3722, growth: C-lim chemostat, doubling time 6 h
[8] = wild type E. coli NCM3722, growth: N-lim chemostat, doubling time 6 h
[9] = wild type E. coli NCM3722, growth: N-lim chemostat, doubling time 12 h
[10] = wild type E. coli NCM3722, growth: P-lim chemostat, doubling time 6 h
[11] = wild type E. coli NCM3722, growth: P-lim chemostat, doubling time 12 h
[12] = wild type E. coli NCM3722, growth: C-lim chemostat, doubling time 12 h

| Sequence | total protein half-life in vivo [1] [h] | total protein half-life in vivo [2] [h] | total protein half-life in vivo [3] [h] | total protein half-life in vivo [4] [h] | total protein half-life in vivo [5] [h] | total protein half-life in vivo [6] [h] | total protein half-life in vivo [7] [h] | total protein half-life in vivo [8] [h] | total protein half-life in vivo [9] [h] | total protein half-life in vivo [10] [h] | total protein half-life in vivo [11] [h] | total protein half-life in vivo [12] [h] |
| --- | --- | --- | --- | --- | --- | --- | --- | --- | --- | --- | --- | --- |
| MAELTALHTLTAQMKREGIRRLLVLSGEEGWCFEHTLKLRDALPGDWLWISPRPDAENHCSPSALQTLLGREFRHAVFDARHGFDAAAFAALSGTLKAGSWLVLLLPVWEEWENQPDADSLRWSDCPDPIATPHFVQHLKRVLTADNEAILWRQNQPFSLAHFTPRTDWYPATGAPQPEQQQLLKQLMTMPPGVAAVTAARGRGKSALAGQLISRIAGRAIVTAPAKASTDVLAQFAGEKFRFIAPDALLASDEQADWLVVDEAAAIPAPLLHQLVSRFPRTLLTTTVQGYEGTGRGFLLKFCARFPHLHRFELQQPIRWAQGCPLEKMVSEALVFDDENFTHTPQGNIVISAFEQTLWQSDPETPLKVYQLLSGAHYRTSPLDLRRMMDAPGQHFLQAAGENEIAGALWLVDEGGLSQQLSQAVWAGFRRPRGNLVAQSLAAHGNNPLAATLRGRRVSRIAVHPARQREGTGRQLIAGALQYTQDLDYLSVSFGYTGELWRFWQRCGFVLVRMGNHREASSGCYTAMALLPMSDAGKQLAEREHYRLRRDAQALAQWNGETLPVDPLNDAVLSDDDWLELAGFAFAHRPLLTSLGCLLRLLQTSELALPALRGRLQKNASDAQLCTTLKLSGRKMLLVRQREEAAQALFALNDVRTERLRDRITQWQLFH | 5 ± 1.1 | 4.59 ± 0.41 | 4.37 ± 0.39 | 4.56 ± 0.19 | 4.39 ± 0.29 | 3.04 ± 0.3 | 6.05 ± 0.38 | 4.07 ± 1.4 | 7.56 ± 0.58 | 6.65 ± 0.2 | 12.2 ± 1.5 | – |
| MRVSRSLTIKQMAMVAAVVLVFVFIFCTVLLFHLVQQNRYNTATQLESIARSVREPLSSAILKGDIPEAEAILASIKPAGVVSRADVVLPNQFQALRKSFIPERPVPVMVTRLFELPVQISLGVYSLERPANPQPIAYLVLQADSFRMYKFVMSTLSTLVTIYLLLSLILTVAISWCINRLILHPLRNIARELNAIPAKELVGHQLALPRLHQDDEIGMLVRSYNLNQQLLQRHYEEQNENAMRFPVSDLPNKALLMEMLEQVVARKQTTALMIITCETLRDTAGVLKEAQREILLLTLVEKLKSVLSPRMILAQISGYDFAVIANGVQEPWHAITLGQQVLTIMSERLPIERIQLRPHCSIGVAMFYGDLTAEQLYSRAISAAFTARHKGKNQIQFFDPQQMEAAQKRLTEESDILNALENHQFAIWLQPQVEMTSGKLVSAEVLLRIQQPDGSWDLPDGLIDRIECCGLMVTVGHWVLEESCRLLAAWQERGIMLPLSVNLSALQLMHPNMVADMLELLTRYRIQPGTLILEVTESRRIDDPHAAVAILRPLRNAGVRVALDDFGMGYAGLRQLQHMKSLPIDVLKIDKMFVEGLPGDSSMIAAIIMLAQSLNLQMIAEGVETEAQRDWLAKAGVGIAQGFLFARPLPIEIFEESYLEEK | 6.54 ± 0.19 | 6.31 ± 0.11 | 6.2 ± 0.23 | 5.77 ± 0.32 | 6.1 ± 0.082 | 2.998 ± 0.0049 | 5.7 ± 1.1 | 6.054 ± 0.008 | 12.3 ± 0.63 | 6.161 ± 0.035 | 12.5 ± 0.55 | 13 ± 0.22 |
| MSSVDILVPDLPESVADATVATWHKKPGDAVVRDEVLVEIETDKVVLEVPASADGILDAVLEDEGTTVTSRQILGRLREGNSAGKETSAKSEEKASTPAQRQQASLEEQNNDALSPAIRRLLAEHNLDASAIKGTGVGGRLTREDVEKHLAKAPAKESAPAAAAPAAQPALAARSEKRVPMTRLRKRVAERLLEAKNSTAMLTTFNEVNMKPIMDLRKQYGEAFEKRHGIRLGFMSFYVKAVVEALKRYPEVNASIDGDDVVYHNYFDVSMAVSTPRGLVTPVLRDVDTLGMADIEKKIKELAVKGRDGKLTVEDLTGGNFTITNGGVFGSLMSTPIINPPQSAILGMHAIKDRPMAVNGQVEILPMMYLALSYDHRLIDGRESVGFLVTIKELLEDPTRLLLDV [P0AFG6] | – | 6.24 ± 0.17 | 5.462 ± 0.018 | 5.45 ± 0.14 | 4.93 ± 0.068 | 2.97 ± 0.23 | 5.7 ± 0.27 | 5.17 ± 0.35 | 11 ± 2.5 | 5.72 ± 0.087 | 12 ± 1.1 | 11.3 ± 0.7 |
| MKSLFKVTLLATTMAVALHAPITFAAEAAKPATAADSKAAFKNDDQKSAYALGASLGRYMENSLKEQEKLGIKLDKDQLIAGVQDAFADKSKLSDQEIEQTLQAFEARVKSSAQAKMEKDAADNEAKGKEYREKFAKEKGVKTSSTGLVYQVVEAGKGEAPKDSDTVVVNYKGTLIDGKEFDNSYTRGEPLSFRLDGVIPGWTEGLKNIKKGGKIKLVIPPELAYGKAGVPGIPPNSTLVFDVELLDVKPAPKADAKPEADAKAADSAKK | 6.63 ± 0.44 | 6.6 ± 0.35 | 6.58 ± 0.14 | 6.56 ± 0.067 | 5.9 ± 0.28 | 3.15 ± 0.053 | 6.68 ± 0.15 | 5.86 ± 0.3 | 14 ± 2.2 | 6.04 ± 0.87 | 14.8 ± 1.6 | 11.5 ± 0.64 |
| MNSNKELMQRRSQAIPRGVGQIHPIFADRAENCRVWDVEGREYLDFAGGIAVLNTGHLHPKVVAAVEAQLKKLSHTCFQVLAYEPYLELCEIMNQKVPGDFAKKTLLVTTGSEAVENAVKIARAATKRSGTIAFSGAYHGRTHYTLALTGKVNPYSAGMGLMPGHVYRALYPCPLHGISEDDAIASIHRIFKNDAAPEDIAAIVIEPVQGEGGFYASSPAFMQRLRALCDEHGIMLIADEVQSGAGRTGTLFAMEQMGVAPDLTTFAKSIAGGFPLAGVTGRAEVMDAVAPGGLGGTYAGNPIACVAALEVLKVFEQENLLQKANDLGQKLKDGLLAIAEKHPEIGDVRGLGAMIAIELFEDGDHNKPDAKLTAEIVARARDKGLILLSCGPYYNVLRILVPLTIEDAQIRQGLEIISQCFDEAKQ | 3.78 ± 0.21 | 2.96 ± 0.38 | 2.98 ± 0.17 | 3.23 ± 0.15 | 2.83 ± 0.11 | 2.993 ± 0.012 | 4.86 ± 0.26 | 3.04 ± 0.32 | 4.1 ± 0.17 | 5.414 ± 0.018 | 9.92 ± 0.68 | 9.33 ± 1.2 |
| MLQIIRGKLVIFLITLCLFVVYLGFDNNSNSDIVFYGHKTPKSVEIYLSEKNIIYKIINDQKISRGNGHFISIMVNNYRTHCGVVDINLNFFNDILYSVRLKNISKLENMEFCATKQRVYFSDKNKKASYKIINYGDYYDVDYYDNNLKNEVFDWIGKWS | – | – | – | – | – | 2.67 | 4.29 | – | – | 2.67 | 7 | – |
